Where a SMILES comes first, the peptide text is derived from it. Bridges are numbered along the chain shown (N, C = ends).
Experiment: circular dichroism
Settings: 10 mM K phosphate, 100 mM KF; pH 7; 20 °C; 150 uM

Molecule	helicity [frac]
CC[C@H](C)[C@H](NC(C)=O)C(=O)N[C@H]1CCCCNC(=O)C[C@@H](C(=O)N[C@@H](CCCCN)C(=O)N[C@@H](C)C(=O)N[C@H]2CCCCNC(=O)C[C@@H](C(=O)N[C@@H](Cc3c[nH]cn3)C(=O)N[C@H](C(=O)N[C@@H](C)C(=O)N[C@@H](CCC(N)=O)C(=O)N[C@@H](CC(C)C)C(N)=O)[C@@H](C)CC)NC(=O)[C@H](CCCNC(=N)N)NC(=O)[C@H](CC(C)C)NC(=O)[C@H](CCSC)NC2=O)NC(=O)[C@H](CCCNC(=N)N)NC(=O)[C@H](CC(C)C)NC(=O)[C@H](CCC(=O)O)NC1=O (Ac-IKELRDKAKMLRDHIAQL-NH2; lactam 2-6, 9-13)	0.35
CC[C@H](C)[C@H](NC(C)=O)C(=O)N[C@H]1CCCCNC(=O)C[C@@H](C(=O)N[C@@H](CCCCN)C(=O)N[C@@H](C)C(=O)N[C@@H](CC(N)=O)C(=O)N[C@@H](CCSC)C(=O)N[C@@H](CC(C)C)C(=O)N[C@@H](CCCNC(=N)N)C(=O)N[C@@H](CCC(=O)O)C(=O)N[C@@H](Cc2c[nH]cn2)C(=O)N[C@H](C(=O)N[C@@H](C)C(=O)N[C@@H](CCC(N)=O)C(=O)N[C@@H](CC(C)C)C(N)=O)[C@@H](C)CC)NC(=O)[C@H](CCCNC(=N)N)NC(=O)[C@H](CC(C)C)NC(=O)[C@H](CCC(=O)O)NC1=O (Ac-IKELRDKANMLREHIAQL-NH2; lactam 2-6)	0.3
CC[C@H](C)[C@H](NC(C)=O)C(=O)N[C@@H](Cc1ccc(O)cc1)C(=O)N[C@@H](CCC(=O)O)C(=O)N[C@@H](CC(C)C)C(=O)N[C@@H](CCCNC(=N)N)C(=O)N[C@@H](CO)C(=O)N[C@@H](CCCCN)C(=O)N[C@@H](C)C(=O)N[C@H]1CCCCNC(=O)C[C@@H](C(=O)N[C@@H](Cc2c[nH]cn2)C(=O)N[C@H](C(=O)N[C@@H](C)C(=O)N[C@@H](CCC(N)=O)C(=O)N[C@@H](CC(C)C)C(N)=O)[C@@H](C)CC)NC(=O)[C@H](CCCNC(=N)N)NC(=O)[C@H](CC(C)C)NC(=O)[C@H](CCSC)NC1=O (Ac-IYELRSKAKMLRDHIAQL-NH2; lactam 9-13)	0.34
CC[C@H](C)[C@@H]1NC(=O)[C@H](CCC(=O)O)NC(=O)[C@@H](NC(=O)[C@H](CCCCN)NC(=O)[C@H](CC(C)C)NC(C)=O)CCCCNC(=O)C[C@@H](C(=O)N[C@@H](CC(C)C)C(=O)N[C@@H](CCCNC(=N)N)C(=O)N[C@H]2CCCCNC(=O)C[C@@H](C(=O)N[C@@H](CC(C)C)C(=O)N[C@@H](CCCNC(=N)N)C(=O)N[C@@H](CCC(=O)O)C(=O)N[C@@H](Cc3c[nH]cn3)C(N)=O)NC(=O)[C@H](CCCCN)NC(=O)[C@H](C)NC(=O)[C@H](CCCCN)NC2=O)NC(=O)[C@H](Cc2ccc(O)cc2)NC1=O (Ac-LKKEIYDLRKKAKDLREH-NH2; lactam 3-7, 10-14)	0.39
CC[C@H](C)[C@@H]1NC(=O)[C@H](CCC(=O)O)NC(=O)[C@@H](NC(=O)[C@H](CCCCN)NC(=O)[C@H](CC(C)C)NC(C)=O)CCCCNC(=O)C[C@@H](C(=O)N[C@@H](CC(C)C)C(=O)N[C@@H](CCCNC(=N)N)C(=O)N[C@@H](CCCCN)C(=O)N[C@@H](CCCCN)C(=O)N[C@@H](C)C(=O)N[C@H]2CCCCNC(=O)C[C@@H](C(=O)N[C@@H](Cc3c[nH]cn3)C(N)=O)NC(=O)[C@H](CCCNC(=N)N)NC(=O)[C@H](CC(C)C)NC(=O)[C@H](CCSC)NC2=O)NC(=O)[C@H](Cc2ccc(O)cc2)NC1=O (Ac-LKKEIYDLRKKAKMLRDH-NH2; lactam 3-7, 13-17)	0.49
CC[C@H](C)[C@@H]1NC(=O)[C@H](Cc2c[nH]cn2)NC(=O)[C@@H](NC(=O)[C@H](CCCNC(=N)N)NC(=O)[C@H](CC(C)C)NC(=O)[C@@H]2CC(=O)NCCCC[C@H](NC(=O)[C@H](CCCNC(=N)N)NC(=O)[C@H](CC(C)C)NC(=O)[C@@H]3CC(=O)NCCCC[C@H](NC(=O)[C@H](CCCCN)NC(=O)[C@H](CC(C)C)NC(C)=O)C(=O)N[C@@H](CCC(=O)O)C(=O)N[C@@H]([C@@H](C)CC)C(=O)N[C@@H](Cc4ccc(O)cc4)C(=O)N3)C(=O)N[C@@H](CCCCN)C(=O)N[C@@H](C)C(=O)N[C@@H](CC(N)=O)C(=O)N2)CCCCNC(=O)C[C@@H](C(=O)N[C@@H](CC(C)C)C(N)=O)NC(=O)[C@H](C)NC1=O (Ac-LKKEIYDLRKKANDLRKHIADL-NH2; lactam 3-7, 10-14, 17-21)	0.43
CC[C@H](C)[C@H](NC(=O)[C@H](Cc1c[nH]cn1)NC(=O)[C@@H]1CC(=O)NCCCC[C@H](NC(=O)[C@H](C)NC(=O)[C@H](CCCCN)NC(=O)[C@H](CO)NC(=O)[C@H](CCCNC(=N)N)NC(=O)[C@H](CC(C)C)NC(=O)[C@@H]2CC(=O)NCCCC[C@H](NC(=O)[C@H](CCCCN)NC(=O)[C@H](CC(C)C)NC(C)=O)C(=O)N[C@@H](CCC(=O)O)C(=O)N[C@@H]([C@@H](C)CC)C(=O)N[C@@H](Cc3ccc(O)cc3)C(=O)N2)C(=O)N[C@@H](CCSC)C(=O)N[C@@H](CC(C)C)C(=O)N[C@@H](CCCNC(=N)N)C(=O)N1)C(=O)N[C@@H](C)C(=O)N[C@@H](CCC(N)=O)C(=O)N[C@@H](CC(C)C)C(N)=O (Ac-LKKEIYDLRSKAKMLRDHIAQL-NH2; lactam 3-7, 13-17)	0.63
CC[C@H](C)[C@@H]1NC(=O)[C@H](Cc2c[nH]cn2)NC(=O)[C@@H](NC(=O)[C@H](CCCNC(=N)N)NC(=O)[C@H](CC(C)C)NC(=O)[C@H](CCSC)NC(=O)[C@H](CC(N)=O)NC(=O)[C@H](C)NC(=O)[C@H](CCCCN)NC(=O)[C@H](CO)NC(=O)[C@H](CCCNC(=N)N)NC(=O)[C@H](CC(C)C)NC(=O)[C@@H]2CC(=O)NCCCC[C@H](NC(=O)[C@H](CCCCN)NC(=O)[C@H](CC(C)C)NC(C)=O)C(=O)N[C@@H](CCC(=O)O)C(=O)N[C@@H]([C@@H](C)CC)C(=O)N[C@@H](Cc3ccc(O)cc3)C(=O)N2)CCCCNC(=O)C[C@@H](C(=O)N[C@@H](CC(C)C)C(N)=O)NC(=O)[C@H](C)NC1=O (Ac-LKKEIYDLRSKANMLRKHIADL-NH2; lactam 3-7, 17-21)	0.57
CC[C@H](C)[C@H](NC(=O)[C@H](Cc1c[nH]cn1)NC(=O)[C@@H]1CC(=O)NCCCC[C@H](NC(=O)[C@H](Cc2ccccc2)NC(=O)[C@H](CCCCN)NC(=O)[C@H](CO)NC(=O)[C@H](CCCNC(=N)N)NC(=O)[C@H](CC(C)C)NC(=O)[C@@H]2CC(=O)NCCCC[C@H](NC(=O)[C@H](CCCCN)NC(=O)[C@H](CC(C)C)NC(C)=O)C(=O)N[C@@H](CCC(=O)O)C(=O)N[C@@H]([C@@H](C)CC)C(=O)N[C@@H](Cc3ccc(O)cc3)C(=O)N2)C(=O)N[C@@H](CCSC)C(=O)N[C@@H](CC(C)C)C(=O)N[C@@H](CCCNC(=N)N)C(=O)N1)C(=O)N[C@@H](C)C(=O)N[C@@H](CCC(N)=O)C(=O)N[C@@H](CC(C)C)C(N)=O (Ac-LKKEIYDLRSKFKMLRDHIAQL-NH2; lactam 3-7, 13-17)	0.37
CC[C@H](C)[C@H](NC(=O)[C@H](Cc1c[nH]cn1)NC(=O)[C@@H]1CC(=O)NCCCC[C@H](NC(=O)[C@H](C)NC(=O)[C@H](CC(C)C)NC(=O)[C@H](CO)NC(=O)[C@H](CCCNC(=N)N)NC(=O)[C@H](CC(C)C)NC(=O)[C@@H]2CC(=O)NCCCC[C@H](NC(=O)[C@H](CCCCN)NC(=O)[C@H](CC(C)C)NC(C)=O)C(=O)N[C@@H](CCC(=O)O)C(=O)N[C@@H]([C@@H](C)CC)C(=O)N[C@@H](Cc3ccc(O)cc3)C(=O)N2)C(=O)N[C@@H](CCSC)C(=O)N[C@@H](CC(C)C)C(=O)N[C@@H](CCCNC(=N)N)C(=O)N1)C(=O)N[C@@H](C)C(=O)N[C@@H](CCC(N)=O)C(=O)N[C@@H](CC(C)C)C(N)=O (Ac-LKKEIYDLRSLAKMLRDHIAQL-NH2; lactam 3-7, 13-17)	0.34
CC[C@H](C)[C@H](NC(=O)[C@H](Cc1c[nH]cn1)NC(=O)[C@@H]1CC(=O)NCCCC[C@H](NC(=O)[C@H](C)NC(=O)[C@H](CCCCN)NC(=O)[C@H](CO)NC(=O)[C@H](CCCNC(=N)N)NC(=O)[C@H](CC(C)C)NC(=O)[C@@H]2CC(=O)NCCCC[C@H](NC(=O)[C@H](CCCCN)NC(=O)[C@H](CC(C)C)NC(C)=O)C(=O)N[C@@H](CCC(=O)O)C(=O)N[C@@H](CC(N)=O)C(=O)N[C@@H](Cc3ccc(O)cc3)C(=O)N2)C(=O)N[C@@H](CCSC)C(=O)N[C@@H](CC(C)C)C(=O)N[C@@H](CCCNC(=N)N)C(=O)N1)C(=O)N[C@@H](C)C(=O)N[C@@H](CCC(N)=O)C(=O)N[C@@H](CC(C)C)C(N)=O (Ac-LKKENYDLRSKAKMLRDHIAQL-NH2; lactam 3-7, 13-17)	0.33
CC[C@H](C)[C@H](NC(=O)[C@H](Cc1c[nH]cn1)NC(=O)[C@@H]1CC(=O)NCCCC[C@H](NC(=O)[C@H](C)NC(=O)[C@H](CCCCN)NC(=O)[C@H](CO)NC(=O)[C@H](CCCNC(=N)N)NC(=O)[C@H](CC(C)C)NC(=O)[C@@H]2CC(=O)NCCCC[C@H](NC(=O)[C@H](CCCNC(=N)N)NC(=O)[C@H](CC(C)C)NC(C)=O)C(=O)N[C@@H](CCC(=O)O)C(=O)N[C@@H]([C@@H](C)CC)C(=O)N[C@@H](Cc3ccc(O)cc3)C(=O)N2)C(=O)N[C@@H](CCSC)C(=O)N[C@@H](CC(C)C)C(=O)N[C@@H](CCCNC(=N)N)C(=O)N1)C(=O)N[C@@H](C)C(=O)N[C@@H](CCC(N)=O)C(=O)N[C@@H](CC(C)C)C(N)=O (Ac-LRKEIYDLRSKAKMLRDHIAQL-NH2; lactam 3-7, 13-17)	0.34

Experiment: Circular dichroism helicity of peptide in isolation (homotypic)
Assay type: physicochemical
Settings: CD ratio, peptide in isolation, 20 °C
Description: Circular dichroism (CD) spectroscopy was conducted with an Applied Photophysics Chirascan CD spectroploarimeter (Leatherhead, U.K.) using a 200 µL sample in a CD cell with a 1 mm path length (Hellma, Müllheim Germany). Samples contained 150 µM total peptide concentration suspended in 10 mM potassium phosphate and 100 mM potassium fluoride at pH 7. The CD spectra of the homodimeric and heterodimeric complexes were scanned between 300 nm and 190 nm at 20°C (for both pre- and post-melt samples to check for reversibility of unfolding) and at −8°C to assess helical levels and coiled-coil structure (see Figure 4).
Supplementary file pone.0059415.s005.doc: Table S1 Helical Data obtained via Circular Dichroism. Shown are A) homo and B) heteromeric samples. […] A ratio higher than 1 is generally indicated evidence that a coiled coil has formed, while a ratio of less than 0.9 is taken to indicate the presence of isolated helices. Shown in column two are the calculated fractional helicities taken from the Molar Residue Ellipticity at […]. Fraction helicity (ƒH) can be calculated as ƒH = (θ222−θc)/(θ222∞−θc) where θ222∞ = (−44000+250*T)*(1−k/Nr) and θc = 2220–(53*T). In these equations the wavelength dependent constant k = 2.4 (at 222 nm), Nr = the number of residues, and T = 20 degrees Celsius (293 K). The 222/208 ratio is used to provide evidence on whether the helices are monomeric or are adopting a quaternary structure. Measured helicity for the original JunWCANDI peptide and for the template on which the hydrocarbon constraints have been introduced. […] The N- and C-capping motifs have been removed for the constrained since they are considered to be largely redundant upon their introduction. (DOC) Click here for additional data file.

Molecule	Homotypic Ɵ222/208 (20ºC)
Ac-ASTDTLQAETDQLEDEKYALQTEIANLLKEKEKLGAP-NH2 [cFos]	0.59

Same assay, conditions: peptide in isolation, from CD molar residue ellipticity at 222 nm, 20°C, 150 µM, pH 7

Molecule	Fraction helical (ƒH), homotypic
Ac-ASTDTLQAETDQLEDEKYALQTEIANLLKEKEKLGAP-NH2 [cFos]	0.20
